Laboratory results: the supplement of paper PMC9170038

Tested on: MS2 coat protein
Assay: apparent KD of MS2 coat protein; designed switch direction (-1 OFF switch, 1 ON switch): -1; higher = weaker reporter binding
Method in brief: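 On Illumina chips, designed RNA switches with common flanks were made by stalled E. coli RNA polymerase. Titrations with SNAP-549-labelled MS2 coat protein, doubling from 0.7 or 1.5 nM to 3 µM, were done with no input, with 200 uM small-molecule ligand, or with an oligonucleotide input. Apparent KD is the median per design over clusters, from curve fits of normalised cluster fluorescence.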

[1] = Eterna round: R95, input ligand: microRNA oligo, concentration not stated
[2] = input ligand: microRNA oligo, concentration not stated
[3] = Eterna round: R95, input ligand: FMN 200 uM
[4] = Eterna round: R95, input ligand: none

Sequence: CUUCGUAUAGAGGAUAUAGGUUACUUCGGUAUCCUAGAAGGCUGUACAUGAGGAUCACCCAUGUACUUCAGAUC [Exclusion 6 - B - 13:a] (puzzle: Exclusion 6)
- apparent KD of MS2 coat protein [1]: 0.0122 µM

Sequence: CUUGUUUAUGUAGGAUAUGCCUGGCGUGCCUUUGCAGAAGGACAUGAGGAUCACCCAUGUAACAUGAGGAUCACCCAUGUCGCA [salish99_ExNG1_r04_103] (Eterna round: R96, puzzle: Exclusion NG 1)
- apparent KD of MS2 coat protein (input ligand: FMN 200 uM): 1.19 µM
- apparent KD of MS2 coat protein [2]: 0.555 µM
- apparent KD of MS2 coat protein (input ligand: none): 0.854 µM

Sequence: CUUGUUUAUGUAGGAUAUGCCUGGCGUGCCUUUGCAGAAGGACAUGAGGAUCACCCAUGUAACAUGAGGCUCACCCAUGUCGCA [salish99_ExNG1_r04_104] (Eterna round: R96, puzzle: Exclusion NG 1)
- apparent KD of MS2 coat protein (input ligand: FMN 200 uM): 0.376 µM
- apparent KD of MS2 coat protein [2]: 0.256 µM
- apparent KD of MS2 coat protein (input ligand: none): 0.353 µM

Sequence: CUUGUUUAUGUAGGAUAUGCCUGGCGUGCCUUUGCAGAAGGACAUGAGGAUCACCCAUGUAACAUGAGGCUCACCCUUGUCGCC [salish99_ExNG1_r04_116] (Eterna round: R96, puzzle: Exclusion NG 1)
- apparent KD of MS2 coat protein (input ligand: FMN 200 uM): 0.146 µM
- apparent KD of MS2 coat protein [2]: 0.0901 µM
- apparent KD of MS2 coat protein (input ligand: none): 0.114 µM

Sequence: CUUUAGUAAGGAUAUCAGCUUAGGAGGUUGGUAAUGAGAGCUGAGAAGGUACAUGAGGAUCACCCAUGUUAGUU [JL Zatite mod 9] (puzzle: Exclusion 4)
- apparent KD of MS2 coat protein [1]: 0.0171 µM

Sequence: CUUUAGUGAGGAUAUCAGUAGUAAUACAAUAGUAUUACUACUGAGAAGGCACAUGAGGAUCACCCAUGUUCUUC [Mat - Exclusion 4 - Mod of Omei - D77] (puzzle: Exclusion 4)
- apparent KD of MS2 coat protein [1]: 0.0188 µM

Sequence: CUUUUGUGAGGAUAUCAGUAGUAAAAUAAUAAAAUUACUACUGAGAAGGCACAUGAGGAUCACCCAUGUUCCUC [salish99_ex4_r3_019] (puzzle: Exclusion 4)
- apparent KD of MS2 coat protein [1]: 0.0364 µM

Sequence: CUUUUGUGAGGAUAUUAAUAGUAAGUAAAUAAAAUUAUUACUAAGAAGGCACAUGAGGAUCACCCAUGUUUCUC [EX4 #83] (Eterna round: R97, puzzle: Exclusion 4)
- apparent KD of MS2 coat protein (input ligand: FMN 200 uM): 0.0768 µM
- apparent KD of MS2 coat protein (input ligand: none): 0.0418 µM

Sequence: CUUUUGUGAGGAUAUUAGUAGUAAAUAAAUAAAAUUACUACUGAGAAGGCACAUGAGGAUCACCCAUGUUCCUC [Salish 062 v16] (Eterna round: R97, puzzle: Exclusion 4)
- apparent KD of MS2 coat protein (input ligand: FMN 200 uM): 0.358 µM
- apparent KD of MS2 coat protein (input ligand: none): 0.0429 µM

Sequence: CUUUUGUGAGGAUAUUAGUAGUAAAUAAAUAAAAUUACUACUGAGAAGGCACAUGAGGAUCACCCAUGUUCCUC [salish99_ex4_r3_041] (Eterna round: R96, puzzle: Exclusion 4)
- apparent KD of MS2 coat protein (input ligand: FMN 200 uM): 0.424 µM
- apparent KD of MS2 coat protein [2]: 0.0328 µM
- apparent KD of MS2 coat protein (input ligand: none): 0.0354 µM

Sequence: CUUUUGUGAGGAUAUUAGUAGUAAAUAAAUAAAAUUACUACUGAGAAGGCACAUGAGGAUCACCCAUGUUCCUC [salish99_ex4_r3_041] (puzzle: Exclusion 4)
- apparent KD of MS2 coat protein [1]: 0.0346 µM

Sequence: CUUUUGUGAGGAUAUUAGUAGUAAAUAAAUAAAAUUACUACUUAGAAGGCACAUGAGGAUCACCCAUGUUCCUC [salish99_ex4_r3_043] (Eterna round: R96, puzzle: Exclusion 4)
- apparent KD of MS2 coat protein (input ligand: FMN 200 uM): 0.238 µM
- apparent KD of MS2 coat protein [2]: 0.0258 µM
- apparent KD of MS2 coat protein (input ligand: none): 0.0296 µM

Sequence: CUUUUGUGAGGAUAUUAGUAGUAAAUAAAUAAAAUUACUACUUAGAAGGCACAUGAGGAUCACCCAUGUUCCUC [salish99_ex4_r3_043] (puzzle: Exclusion 4)
- apparent KD of MS2 coat protein [1]: 0.0283 µM

Sequence: CUUUUGUGAGGAUAUUAGUAGUAAAUAAAUAAAAUUACUAUUGAGAAGGCACAUGAGGAUCACCCAUGUUCCUC [salish99_ex4_r3_064] (puzzle: Exclusion 4)
- apparent KD of MS2 coat protein [1]: 0.0303 µM

Sequence: CUUUUGUGAGGAUAUUAGUAGUAAAUAAAUAAAAUUAUUACUGAGAAGGCACAUGAGGAUCACCCAUGUUCCUU [Salish 062 v20] (Eterna round: R97, puzzle: Exclusion 4)
- apparent KD of MS2 coat protein (input ligand: FMN 200 uM): 0.0636 µM
- apparent KD of MS2 coat protein (input ligand: none): 0.017 µM

Sequence: CUUUUGUGAGGAUAUUAGUAGUAAAUUAAUAAAAUUACUACUGAGAAGGCACAUGAGGAUCACCCAUGUUCCUC [salish99_ex4_r3_054] (puzzle: Exclusion 4)
- apparent KD of MS2 coat protein [1]: 0.0397 µM

Sequence: CUUUUGUGAGGAUAUUAGUAGUAAGUAAAUAAAAUUAUUACUAAGAAGGCACAUGAGGAUCACCCAUGUUCCUC [EX4 #81] (Eterna round: R97, puzzle: Exclusion 4)
- apparent KD of MS2 coat protein (input ligand: FMN 200 uM): 0.108 µM
- apparent KD of MS2 coat protein (input ligand: none): 0.058 µM

Sequence: CUUUUGUGAGGAUAUUAGUAGUUUAUAAUUAAAAUUAUUACUGAGAAGGCACAUGAGGAUCACCCAUGUACCAC [JR_Ex4_Sub030] (Eterna round: R97, puzzle: Exclusion 4)
- apparent KD of MS2 coat protein (input ligand: FMN 200 uM): 0.0928 µM
- apparent KD of MS2 coat protein (input ligand: none): 0.0218 µM

Sequence: CUUUUUUUUGUGAGGAUAUACUGUUAUUAAAGUUAGUAGAAGGUACAUGAGGAUCACCCAUGUUAAUUACUUUA [JR_BME4_Sub050] (puzzle: Brourd's mod of Exclusion 4)
- apparent KD of MS2 coat protein [1]: 0.0129 µM

Sequence: GAAAACGCUGAGGAUAUUUCUGAUCAAAGCAGCAAAGAAGGCAGCACAUGAGGAUCACCCAUGUGGUCUUCAAA [jl-ex6-4.03 ViennaUCT mod] (Eterna round: R97, puzzle: Exclusion 6)
- apparent KD of MS2 coat protein (input ligand: FMN 200 uM): 0.907 µM
- apparent KD of MS2 coat protein (input ligand: none): 0.0321 µM

Sequence: GAAAACGUAGGAUAUUAAUACUCAGACAUGAGGAUCACCCAUGUUUGGUGGGUCGGAGAAUGAGAAGGGCGAUGAA [EX5 #14] (Eterna round: R97, puzzle: Exclusion 5)
- apparent KD of MS2 coat protein (input ligand: FMN 200 uM): 0.0823 µM
- apparent KD of MS2 coat protein (input ligand: none): 0.0897 µM

Sequence: GAAAAGGCAGAGGAUAUUUCAGAUCAAAGCUGCAAAGAAGGCUGCACAUGAGGAUCACCCAUGUGGUCUUAAAA [Mod of Quesina 5 - Jieux - Exclusion 6] (Eterna round: R97, puzzle: Exclusion 6)
- apparent KD of MS2 coat protein (input ligand: FMN 200 uM): 0.176 µM
- apparent KD of MS2 coat protein (input ligand: none): 0.0184 µM

Sequence: GAAAAGGUAGAGGAUAUUUCAGAUCAAAGCUGCAAAGAAGGCUGCACAUGAGGAUCACCCAUGUGGUCUUUAAA [Mod of Quesina 10 - Jieux - Exclusion 6] (Eterna round: R97, puzzle: Exclusion 6)
- apparent KD of MS2 coat protein (input ligand: FMN 200 uM): 0.0701 µM
- apparent KD of MS2 coat protein (input ligand: none): 0.0176 µM

Sequence: GAAAAGGUAGGAUAUACGAAAAAAAAGGGUAAAAAAAAAACACAUGAGGAUCACCCAUGUAGAAGGACCAAAAG [salish99_ex2_r3_062] (puzzle: Exclusion 2)
- apparent KD of MS2 coat protein [3]: 0.0444 µM
- apparent KD of MS2 coat protein [1]: 0.0324 µM
- apparent KD of MS2 coat protein [4]: 0.034 µM

Sequence: GAAAAGGUAGGAUAUAUGAAAAAAAAGGGUAGAAAAAAAACACAUGAGGAUCACCCAUGUAGAAGGACCAAAAG [salish99_ex2_r3_056] (puzzle: Exclusion 2)
- apparent KD of MS2 coat protein [3]: 0.0372 µM
- apparent KD of MS2 coat protein [1]: 0.0463 µM
- apparent KD of MS2 coat protein [4]: 0.0269 µM

Sequence: GAAAAGUGAGGAUAUGGUAAAAGAAAAAGAAAAAGAAAACUCCAGAAGGCACAUGAGGAUCACCCAUGUAAAAG [salish99_ex4_r3_005] (puzzle: Exclusion 4)
- apparent KD of MS2 coat protein [3]: 0.0269 µM
- apparent KD of MS2 coat protein [1]: 0.0194 µM
- apparent KD of MS2 coat protein [4]: 0.0236 µM

Sequence: GAAAAGUGAGGAUAUUGUUUUUUUUUGAAAACGGGAGAGGGCAAGAAGGCACAUGAGGAUCACCCAUGUAAGGU [Alacar 2] (Eterna round: R97, puzzle: Exclusion 4)
- apparent KD of MS2 coat protein (input ligand: FMN 200 uM): 0.0664 µM
- apparent KD of MS2 coat protein (input ligand: none): 0.0441 µM
